Measurements taken from patent US20260184768A1 (Regeneron, published 2026).

T1: PcrV (aa136-257).6xhis (Pseudomonas aeruginosa)
T1 chain: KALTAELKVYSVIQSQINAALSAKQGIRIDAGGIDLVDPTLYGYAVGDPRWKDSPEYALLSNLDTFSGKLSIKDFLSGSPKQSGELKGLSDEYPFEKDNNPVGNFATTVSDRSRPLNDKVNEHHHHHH

B1: REGN3514 (antibody, V domains shown)
VH: EMQLLESGGGLVQPGGSLRLSCAASGFTFSSYAMNWVRQAPGEGLEWVSAITISGITAYYTDSVKGRFTISRDNSKNTLYLQMNSLRAGDTAVYYCAKEEFLPGTHYYYGMDVWGQGTTVTVSS
VL: AIQMTQSPSSLSASVGDRVTITCRASQGIRNDLGWYQQKPGKAPKLVIYSASTLQSGVPSRFSGSGSGTDFTLSISSLQPDDFATYYCLQDYNYPWTFGQGTKVEIKR
notes: also called Control I; Control I-REGN3514
B2: REGN3977 (antibody, V domains shown)
VH: QVQLKQSGPGLVQPSQSLSITCTVSGFSLTSYGVHWVRQSPGKGLEWLGVIWSGGDTDYNAAFISRLSISKDNSKSQLFFKMNSLRATDTAIYYCARNRGDIYYDFTYAMDYWGQGTSVTVSS
VL: DIQMTQSPASLSASVGETVTITCRASGNIQNYLAWYQQTQGKSPQLLVYSAKTLADGVPSRFSGSGSGTQYSLKINSLQPEDFGSYYCQHFWSTPYTFGGGTKLEIKR
notes: also called Control III; REGN3977-Control III
B3: H1H29336P (antibody, V domains shown)
VH: EVQLVESGGGLVQPGGSLRLSCAASGFTFSSYAMTWVRQAPGKGLEWVSSIRGSGYSSDYADSVKGRFTISRDNSENTVYLQMNRLRAEDTAVYYCAKERSVTAYYYYGMDVWGQGTTVTVSS
VL: DIQLTQSPSFLSASVGDRVTITCWASQDISSFLTWYQQKPGIAPKLLIYTASTLQSGVPSRFSGSGSGTEFTLTISSLQPEDFATYYCQQLKSYPLTFGGGTKVEIKR
B4: H1H29332P (antibody, V domains shown)
VH: EVQLVESGGDLVQPGGSLRLSCKASGFTFSTFAMNWVRQAPGRGLEWVSAIGASGYSTYYVDSMKGRFTISRDNSKNTLYLQMNSLGAEDTAVYYCAKEYSVSSNYYYGMDVWGQGTTVTVSS
VL: DIQMTQSPSSLSASVGDRVTITCRASQTIRRYLNWYQQKAGKAPKLLIYAASSLLSGVPSRFSASGSGTDFTLTISSLQPEDFSTYYCQQTYSIPITFGQGTRLEIKR
B5: H1H29329P (antibody, V domains shown)
VH: EVQLVESGGGLVQPGGSLRLSCAASGFTFSDHEMNWVRQAPGKGLEWISYIGSGVVTMYYADSVRGRFTISRDNAKKTLYLQMNSLRAEDTAVYYCARDRGYYFGSEAFHYWGQGTLVTVSS
VL: DIQMTQSPSTLSASVGDRVTITCRASQSISNWLAWYQQKPGKAPKLLIYKSSSLESGVPSRFSGSGSGTEFTLTISSLQPDDFATYYCQQYKSYSLTFGGGTKVEIKR
B6: H1H29339P (antibody, V domains shown)
VH: EVQLVESGGDLVQPGGSLRLSCAASGFTFNTYAMNWVRQAPGKGLEWVAVIGGSGYSTNYADSVKGRFTISRDNSKNTLYLQMNSLRTEDTAVYYCAKEGNIVALYWYFDLWGRGTLVTVSS
VL: DIQMTQSPSSLSASVGDRVTITCRASQSISRYLNWYQQKPGKAPKLLIYAASSLQGGVPSKFSGSGSGTDFTLTISSLQPEDFATYYCQQSSTTPLTFGGGTKVEIKR

Biological target: T1, PcrV (aa136-257).6xhis
Assay: SPR (Biacore T200), mAb captured via anti-human Fc, PcrV injected, 37 C
Procedure: (§1) The equilibrium dissociation constant (KD) for different PcrV reagents binding to purified anti-PcrV monoclonal antibodies were determined using a real-time surface plasmon resonance based Biacore T200 biosensor. All binding studies were performed in 10 mM HEPES, 150 mM NaCl, 3.4 mM EDTA and 0.05% v/v Tween-20, pH 7.4 (HBS-EP) running buffer at 25° C. and 37° C. […] Proteins were injected over the captured anti-PcrV monoclonal antibody surface for 4 minutes at a flow rate of 50 μL/minute, while the dissociation of monoclonal antibody bound PcrV reagent was monitored for 10 minutes in HBS-EP running buffer.
(§2) Kinetic association (kₐ) and dissociation (kd) rate constants were determined by fitting the real-time sensorgrams to a 1:1 binding model using Scrubber 2.0c curve fitting software. Binding dissociation equilibrium constants (KD) and dissociative half-lives (t½) were calculated from the kinetic rate constants as:

| Binder | Kd | koff | kon | t½ |
| --- | --- | --- | --- | --- |
| B1 | 2.42 nM | 0.000596 s⁻¹ | 246000 M⁻¹ s⁻¹ | 0.323 h |
| B2 | 11.4 nM | 0.00245 s⁻¹ | 216000 M⁻¹ s⁻¹ | 0.0783 h |
| B3 | 0.0809 nM | 4.36e-05 s⁻¹ | 544000 M⁻¹ s⁻¹ | 4.41 h |
| B4 | 0.595 nM | 0.000106 s⁻¹ | 178000 M⁻¹ s⁻¹ | 1.82 h |
| B5 | 107 nM | 0.011 s⁻¹ | 103000 M⁻¹ s⁻¹ | 0.0167 h |
| B6 | 0.186 nM | 8.15e-05 s⁻¹ | 435000 M⁻¹ s⁻¹ | 2.36 h |

Biological target: T1, PcrV (aa136-257).6xhis
Assay: SPR (Biacore T200), mAb captured via anti-human Fc, PcrV injected, 25 C
Procedure: as §1, §2

| Binder | Kd | koff | kon | t½ |
| --- | --- | --- | --- | --- |
| B1 | 0.83 nM | 0.000122 s⁻¹ | 147000 M⁻¹ s⁻¹ | 1.58 h |
| B2 | 4.28 nM | 0.000956 s⁻¹ | 223000 M⁻¹ s⁻¹ | 0.202 h |
| B3 | 0.0408 nM | 1.48e-05 s⁻¹ | 367000 M⁻¹ s⁻¹ | 13.1 h |
| B4 | 0.285 nM | 3.83e-05 s⁻¹ | 133000 M⁻¹ s⁻¹ | 5.03 h |
| B5 | 15 nM | 0.0023 s⁻¹ | 153000 M⁻¹ s⁻¹ | 0.0833 h |
| B6 | 0.0955 nM | 2.76e-05 s⁻¹ | 293000 M⁻¹ s⁻¹ | 6.97 h |

biological target: T2, full-length PcrV.6xhis (Pseudomonas aeruginosa); assay: SPR (Biacore T200), mAb captured via anti-human Fc, PcrV injected, 37 C
T2 construct: Recombinant full-length V-tip protein of the type 3 secretion system, His-tagged; also called full-length PcrV with a C-terminal hexahistidine tag
Procedure: as §1, §2

| Binder | 90 nM Ag Bound (RU) | Kd | koff | kon | t½ |
| --- | --- | --- | --- | --- | --- |
| B1 | 141 RU | 0.453 nM | 0.000196 s⁻¹ | 431000 M⁻¹ s⁻¹ | 0.985 h |
| B2 | 136 RU | 3.48 nM | 0.000917 s⁻¹ | 263000 M⁻¹ s⁻¹ | 0.21 h |
| B3 | 80.7 RU | ≤ 0.0116 nM | ≤ 1e-05 s⁻¹ | 860000 M⁻¹ s⁻¹ | ≥ 19.2 h |
| B4 | 163 RU | 0.092 nM | 2.68e-05 s⁻¹ | 293000 M⁻¹ s⁻¹ | 7.19 h |
| B5 | 59.6 RU | 9.12 nM | 0.00505 s⁻¹ | 554000 M⁻¹ s⁻¹ | 0.0383 h |
| B6 | 130 RU | 0.0197 nM | ≤ 1e-05 s⁻¹ | 508000 M⁻¹ s⁻¹ | ≥ 19.2 h |

biological target: T2, full-length PcrV.6xhis; assay: SPR (Biacore T200), mAb captured via anti-human Fc, PcrV injected, 25 C
Procedure: as §1, §2

| Binder | 90 nM Ag Bound (RU) | Kd | koff | kon | t½ |
| --- | --- | --- | --- | --- | --- |
| B1 | 169 RU | 0.146 nM | 3.9e-05 s⁻¹ | 267000 M⁻¹ s⁻¹ | 4.94 h |
| B2 | 146 RU | 2.39 nM | 0.000495 s⁻¹ | 207000 M⁻¹ s⁻¹ | 0.39 h |
| B3 | 102 RU | ≤ 0.0204 nM | ≤ 1e-05 s⁻¹ | 490000 M⁻¹ s⁻¹ | ≥ 19.2 h |
| B4 | 152 RU | 0.0548 nM | 1.3e-05 s⁻¹ | 237000 M⁻¹ s⁻¹ | 14.8 h |
| B5 | 81 RU | 5.16 nM | 0.00095 s⁻¹ | 184000 M⁻¹ s⁻¹ | 0.203 h |
| B6 | 140 RU | ≤ 0.0274 nM | ≤ 1e-05 s⁻¹ | 365000 M⁻¹ s⁻¹ | ≥ 19.2 h |

biological target: T3, PcrV of P. aeruginosa strain ATCC 700888 (Pseudomonas aeruginosa strain ATCC …); assay: cell-based or functional assay

| Binder | Rabbit RBC Hemolysis Assay (IC50) |
| --- | --- |
| B1 | 1.01 nM |
| B3 | 0.81 nM |
| B4 | 4.06 nM |
| B5 | 2.39 nM |
| B6 | 5.59 nM |

biological target: T4, PcrV of P. aeruginosa strain 6077 (Pseudomonas aeruginosa strain 6077); assay: cell-based or functional assay

| Binder | Rabbit RBC Hemolysis Assay (IC50) |
| --- | --- |
| B1 | 2.44 nM |
| B3 | 0.205 nM |
| B4 | 15.3 nM |
| B5 | 56.4 nM |
| B6 | 2.3 nM |

biological target: T5, recombinant full-length P. aeruginosa PcrV (Pseudomonas aeruginosa); assay: ELISA, PcrV coated on plate, chemiluminescence
T5 construct: Coated on ELISA plates; also called Full length PcrV; Full length PerV
Procedure: (§3) Anti-PcrV monoclonal antibodies (mAbs) were assessed by ELISA for their ability to bind to recombinant PcrV proteins. […] The following morning, plates were washed three times with wash buffer (Imidazole buffered saline with Tween-20) and blocked for 1.5 hours at 25° C. with 200 μl of blocking buffer (3% BSA in PBS). […] Wells were washed three times and then incubated with 100 ng/ml anti-human HRP secondary antibody per well for one hour at 25° C. 100 μl of SuperSignal™ ELISA Pico Chemiluminescent Substrate was added to each well and signal was detected (Victor X3 plate reader, Perkin Elmer). Luminescence values were analyzed by a four-parameter logistic equation over a 10-point response curve (GraphPad Prism).

| Binder | EC50 |
| --- | --- |
| B1 | 0.696 nM |
| B3 | 2.28 nM |
| B4 | 2.12 nM |
| B5 | 0.597 nM |
| B6 | 1.96 nM |

biological target: PcrV 136-233 (Pseudomonas aeruginosa); assay: ELISA, PcrV coated on plate, chemiluminescence
Procedure: as §3

| Binder | EC50 |
| --- | --- |
| B1 | 7.59 nM |
| B3 | 1.03 nM |
| B4 | 0.814 nM |
| B5 | 7.44 nM |
| B6 | 0.856 nM |

biological target: T3, PcrV of P. aeruginosa strain ATCC 700888; assay: cell-based or functional assay; remark: another data set of the same source

| Binder | A549 Cytotoxicity Assay (IC50) |
| --- | --- |
| B1 | 17.8 nM |
| B3 | 6.37 nM |
| B4 | 32.9 nM |
| B5 | 54.3 nM |
| B6 | 7.82 nM |

biological target: T4, PcrV of P. aeruginosa strain 6077; assay: cell-based or functional assay; remark: another data set of the same source

| Binder | A549 Cytotoxicity Assay (IC50) |
| --- | --- |
| B1 | 0.807 nM |
| B3 | 0.84 nM |
| B4 | 6.47 nM |
| B5 | 10.8 nM |
| B6 | 0.0333 nM |
